For two substances, other and EC50 results are on record in publication PMC2641028.

What is called EC50 is the concentration giving half of the maximal effect.

Test [1] concerns the target CP-MVP-Z recombinant vaults.
The target of test [2] is CP-MVP-Z recombinant vaults. Briefly: ELISA. On the technique in general: In an ELISA, binding on a coated surface is turned into a signal by an enzyme label.

Regarding mouse IgG (Sigma) (antibody), the other in test [1] came to 52%.

rabbit IgG (Sigma) (antibody): in test [1], the other was 92%. Also, in test [2], the EC50 came out at 250 pM.
